Assay [1] addresses HLA-B*07:02. As to the kind of experiment: IEDB peptide-MHC binding, purified MHC/competitive/radioactivity; filed as Kd, often an IC50 or EC50 that approximates it; ≥ and ≤ were set here for values at or beyond the usual limits of such assays.
The next assay concerns the target HLA-B*54:01. The description is as above.
In another assay the target is HLA-B*35:01. The assay is described as above.
Another assay addresses HLA-B*53:01. The description is as above.
For another assay, the target named is HLA-B*51:01. The description is as above.
Assay [2] addresses HLA-B*07:02. As to the kind of experiment: IEDB peptide-MHC binding, purified MHC/competitive/fluorescence; ≥ and ≤ were set here for values at or beyond the usual limits of such assays.
For the next assay, the target named is HLA-A*24:03. Briefly: IEDB peptide-MHC binding, purified MHC/competitive/fluorescence; filed as Kd, often an IC50 or EC50 that approximates it; ≥ and ≤ were set here for values at or beyond the usual limits of such assays. The settings on record: source organism: Influenza A virus (A/Kayano/57(H2N2)).
The next assay addresses HLA-B*58:01. Briefly: IEDB peptide-MHC binding, purified MHC/competitive/radioactivity; filed as Kd, often an IC50 or EC50 that approximates it; ≥ and ≤ were set here for values at or beyond the usual limits of such assays.
The next assay deals with HLA-B*57:01. The description is as above.
Another assay concerns the target HLA-A*32:01. The assay is described as above. Conditions: source organism: Dengue virus 1 Brazil/97-11/1997.
In another assay the target is HLA-A*01:01. Described as above. The settings on record: source organism: Dengue virus 3 Sri Lanka/1266/2000.
The next assay concerns the target HLA-A*69:01. As to the kind of experiment: IEDB peptide-MHC binding, purified MHC/direct/fluorescence; filed as Kd, often an IC50 or EC50 that approximates it; ≥ and ≤ were set here for values at or beyond the usual limits of such assays. Conditions: source organism: Marburg virus - Musoke, Kenya, 1980.
In a further assay the target is HLA-A*02:01. The assay is described as above. Conditions: source organism: Marburg virus - Musoke, Kenya, 1980.
The target in a further assay is HLA-A*02:12. Described as above. The settings on record: source organism: Ravn virus - Ravn, Kenya, 1987.
Setting [3] is: source organism: SARS coronavirus Tor2.
[4] abbreviates: source organism: Vaccinia virus WR.
Where [5] appears, read: source organism: Sudan ebolavirus.
Where [6] appears, read: source organism: Lymphocytic choriomeningitis virus (strain WE).
The mark [7] stands for this setting: source organism: Dengue virus 3 Martinique/1243/1999.
The mark [8] stands for this setting: source organism: Triticum aestivum.
The mark [9] stands for this setting: source organism: Dengue virus 1 Brazil/97-11/1997.

The term Kd denotes the free concentration of one partner at which half of the binding sites on the other are occupied at equilibrium, for simple one-to-one binding. As to KPASRELSV, the Kd with HLA-B*07:02 [1] (setting [3]) worked out at 5.7 nM; with HLA-B*54:01 (setting [3]), 9540 nM; with HLA-B*35:01 (setting [3]) it was 11800 nM; with HLA-B*53:01 (setting [3]) it was 14400 nM; in the assay with HLA-B*51:01 (setting [3]), 631 nM.
With KPVIVPDIKL, the Kd was 236 nM in the assay with HLA-B*07:02 [1] (setting [4]); 3810 nM in the assay with HLA-B*54:01 (setting [4]); 8870 nM with HLA-B*35:01 (setting [4]); 5200 nM with HLA-B*53:01 (setting [4]); no less than 69600 nM with HLA-B*51:01 (setting [4]).
The term IC50 denotes the point on the concentration scale where inhibition reaches its midpoint. On to LPNPAFIHI, for which, in the assay with HLA-B*07:02 [2] (source organism: Variola virus), the IC50 came out at 11000 nM.
In the assay with HLA-B*07:02 [2] (setting [5]), LPRDKFRKS gave an IC50 of 16900 nM.
As for LRKRSRRQT, the IC50 with HLA-B*07:02 [2] (setting [5]) stood at 18800 nM.
Take MPEWVNFKF: the Kd is 2210 nM in the assay with HLA-B*07:02 [1] (setting [6]); 1000 nM in the assay with HLA-B*54:01 (setting [6]); 8.71 nM in the assay with HLA-B*35:01 (setting [6]); 20 nM with HLA-B*53:01 (setting [6]); no less than 20400 nM with HLA-B*51:01 (setting [6]).
NPNCLEWLRA: the Kd is 17400 nM with HLA-B*07:02 [1] (setting [4]); 20.2 nM with HLA-B*54:01 (setting [4]); 1160 nM with HLA-B*35:01 (setting [4]); 2050 nM with HLA-B*53:01 (setting [4]); no less than 69600 nM with HLA-B*51:01 (setting [4]).
On to NYPVAKGSY, for which the Kd with HLA-A*24:03 was no less than 20000 nM.
As to PPLISILMI, the Kd with HLA-B*07:02 [1] (setting [4]) stood at 7300 nM; in the assay with HLA-B*54:01 (setting [4]) it was 8780 nM; with HLA-B*35:01 (setting [4]) it was 19300 nM; with HLA-B*53:01 (setting [4]), 818 nM; in the assay with HLA-B*51:01 (setting [4]) it was 91.2 nM.
Take QASTTEAILP: the Kd in the assay with HLA-B*58:01 (setting [7]) was 1520 nM; in the assay with HLA-B*57:01 (setting [7]), 1960 nM.
Turning to QPFLQPQL, the Kd was 349 nM in the assay with HLA-B*07:02 [1] (setting [8]); 6350 nM with HLA-B*54:01 (setting [8]); no less than 87800 nM with HLA-B*35:01 (setting [8]); no less than 87700 nM with HLA-B*53:01 (setting [8]); 1110 nM with HLA-B*51:01 (setting [8]).
For RAAVEDEEF, the Kd with HLA-B*58:01 (source organism: Dengue virus 3 Singapore/8120/1995) was determined as 865 nM.
For the sequence RPRVTKQYIV, the Kd was found to be 4.55 nM in the assay with HLA-B*07:02 [1] (setting [4]); 106 nM in the assay with HLA-B*54:01 (setting [4]); 11500 nM with HLA-B*35:01 (setting [4]); 4450 nM in the assay with HLA-B*53:01 (setting [4]); 14900 nM in the assay with HLA-B*51:01 (setting [4]).
RSVSGDLIL: the Kd with HLA-B*58:01 (setting [9]) came out at 9.84 nM.
As to RVWIEENPW, the figures for the Kd in the assay with HLA-B*57:01 (setting [9]) and with HLA-A*32:01 were 2.7 nM and 58 nM, respectively.
Turning to TTLSLDYAW, the Kd was found to be 1.66 nM in the assay with HLA-B*58:01 (setting [9]), 0.617 nM in the assay with HLA-B*57:01 (setting [9]), 114 nM with HLA-A*32:01 and 70.9 nM in the assay with HLA-B*53:01 (setting [9]).
For the sequence VSSVNMVSRL, the Kd amounted to 1030 nM with HLA-B*57:01 (source organism: Dengue virus 3 Sri Lanka/1266/2000) and 10700 nM with HLA-A*01:01.
Regarding YLPEDSDIL, the Kd was no less than 20000 nM with HLA-A*69:01, 525 nM with HLA-A*02:01 and 6 nM with HLA-A*02:12.
